# B1: ΔKC2 (structured_RNA)
# RNA: GGGCGAAUUCGGGAUUCCGACCAGAAGGGGCUAAGGAAUGGUGGGACGAGCUAGCGGCUGGUAUGUGCGUCU
# Key:
# [1] = target: His6-MBP (UniProt P0AEX9 27-392); assay: fluorescence anisotropy; FA: 20 mM Tris pH 7.5, 75 mM KCl, 5 mM MgCl2, 1 uM BSA, 1 mM DTT, 100 ng/uL tRNA, ~5 nM RNA, RT 1 h; EMSA: 50 mM Tris pH 7.5, 145 mM KCl, 5 mM MgCl2, 1 uM BSA
# [2] = target: T1, His6-MBP-FXR1P (Homo sapiens, UniProt P51114-2 1-539); assay: fluorescence anisotropy; 75 mM K+, 5 mM Mg2+; FA: 20 mM Tris pH 7.5, 75 mM KCl, 5 mM MgCl2, 1 uM BSA, 1 mM DTT, 100 ng/uL tRNA, ~5 nM RNA, RT 1 h; EMSA: 50 mM Tris pH 7.5, 145 mM KCl, 5 mM MgCl2, 1 uM BSA; conditions: protein: recombinant; tags: N-terminal His6-MBP; label: 3' fluorescein; G-quadruplex forming
# T1 sequence (P51114 other isoform, or with tags, fused parts or gaps): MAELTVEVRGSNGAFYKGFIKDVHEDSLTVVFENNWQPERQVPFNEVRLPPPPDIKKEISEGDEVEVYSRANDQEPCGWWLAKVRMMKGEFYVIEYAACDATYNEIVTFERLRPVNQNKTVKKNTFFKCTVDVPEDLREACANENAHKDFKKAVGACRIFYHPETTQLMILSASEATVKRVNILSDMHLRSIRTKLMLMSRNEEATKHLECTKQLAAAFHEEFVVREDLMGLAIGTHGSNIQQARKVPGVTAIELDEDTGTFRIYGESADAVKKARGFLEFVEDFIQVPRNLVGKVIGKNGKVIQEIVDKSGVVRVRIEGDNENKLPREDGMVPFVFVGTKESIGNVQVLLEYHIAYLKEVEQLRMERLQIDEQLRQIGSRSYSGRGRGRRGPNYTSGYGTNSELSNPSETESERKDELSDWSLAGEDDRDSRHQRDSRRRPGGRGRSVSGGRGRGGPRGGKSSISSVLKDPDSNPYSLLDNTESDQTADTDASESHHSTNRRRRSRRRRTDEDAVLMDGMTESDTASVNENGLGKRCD
# [3] = target: T1, His6-MBP-FXR1P; assay: EMSA; 250 nM protein; FA: 20 mM Tris pH 7.5, 75 mM KCl, 5 mM MgCl2, 1 uM BSA, 1 mM DTT, 100 ng/uL tRNA, ~5 nM RNA, RT 1 h; EMSA: 50 mM Tris pH 7.5, 145 mM KCl, 5 mM MgCl2, 1 uM BSA; conditions: protein: recombinant, tags: N-terminal His6-MBP
binder,measurement,setting,value
GGGGGGGGGGGGGGGGGU (structured_RNA) [poly-G17U],binding result,[1],no binding
same,Kd,[2],11.7 ± 1 nM
GCUAUCCAGAUUCUGAUU (ssRNA) [CR1],binding result,"[3]; label: 3' fluorescein, single strand, no predicted G-quadruplex",no binding
B1,binding result,"[3]; label: 3' fluorescein (FTSC, periodate-oxidized 3' end), loop-loop pseudoknot (kissing complex)",binds
